Reference: publication PMC4055408, “The Transcription Factor TFII-I Promotes DNA Translesion Synthesis and Genomic Stability” (PLoS Genetics, 2014)
One block for each binder: values may come before it.

Assays:
[1] = target: T1, Rev7 R124A–Rev3L (residues 1847–1898) complex (human, UniProt Q9UI95 1-211; O60673 1847-1898, R124A); test: SEC; purified recombinant proteins mixed (1:1:1 molar ratios for Figure 1E) and fractionated on Superdex 200 10/300 GL; fractions on SDS-PAGE, Coomassie; conditions: both partners purified
T1 construct: human Rev7 with R124A (disrupts Rev7 dimerization); also called Rev7–Rev3L; source: recombinant, purified; prepared as previously described; copies: 1 + 1

[2] = target: the molecule itself; test: SEC; single purified TFII-I fragments fractionated on Superdex 200; apparent molecular mass against standards; monomer or homodimer
His6-Rev7 R124A = target: T2, His6-Rev7 R124A (human, UniProt Q9UI95 1-211, R124A); test: SEC; purified recombinant proteins mixed (1:1:1 molar ratios for Figure 1E) and fractionated on Superdex 200 10/300 GL; fractions on SDS-PAGE, Coomassie; conditions: both partners purified
T2 construct: human Rev7 with R124A (disrupts Rev7 dimerization); The Rev7 chain of m12, written alone for the pairs that touch inside the reconstituted complexes; source: prepared as previously described
T2 sequence (Q9UI95 whole entry R124A): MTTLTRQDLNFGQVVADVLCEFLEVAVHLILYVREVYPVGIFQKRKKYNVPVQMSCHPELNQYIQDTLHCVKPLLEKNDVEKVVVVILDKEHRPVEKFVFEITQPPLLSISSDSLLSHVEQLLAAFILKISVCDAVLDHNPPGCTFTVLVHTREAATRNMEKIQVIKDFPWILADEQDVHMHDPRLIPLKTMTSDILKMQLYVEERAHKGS

T1 sequence (Q9UI95 whole entry R124A, the tested form may be a part, one chain of several): as the sequence (Q9UI95 whole entry R124A) above

B1: Rev1 CTD (residues 1140–1251) (domain or fragment, human, UniProt Q9UBZ9 1140-1251, looked up)
chain: GLSSLQSDPAGCVRPPAPNLAGAVEFNDVKTLLREWITTISDPMEEDILQVVKYCTDLIEEKDLEKLDLVIKYMKRLMQQSVESVWNMAFDFILDNVQVVLQQTYGSTLKVT
notes: Rev1 C-terminal domain, residues 1140-1251; also called C-terminal domain (CTD) of Rev1; source: bacteria, GST fusion, purified (glutathione-Sepharose 4B, PreScission, anion exchange, size exclusion)
stoichiometry N [1]: 1

B2: TFII-I^1–667 fragment (domain or fragment, human, UniProt P78347 1-667, looked up)
chain: MAQVAMSTLPVEDEESSESRMVVTFLMSALESMCKELAKSKAEVACIAVYETDVFVVGTERGRAFVNTRKDFQKDFVKYCVEEEEKAAEMHKMKSTTQANRMSVDAVEIETLRKTVEDYFCFCYGKALGKSTVVPVPYEKMLRDQSAVVVQGLPEGVAFKHPENYDLATLKWILENKAGISFIIKRPFLEPKKHVGGRVMVTDADRSILSPGGSCGPIKVKTEPTEDSGISLEMAAVTVKEESEDPDYYQYNIQAGPSETDDVDEKQPLSKPLQGSHHSSEGNEGTEMEVPAEDSTQHVPSETSEDPEVEVTIEDDDYSPPSKRPKANELPQPPVPEPANAGKRKVREFNFEKWNARITDLRKQVEELFERKYAQAIKAKGPVTIPYPLFQSHVEDLYVEGLPEGIPFRRPSTYGIPRLERILLAKERIRFVIKKHELLNSTREDLQLDKPASGVKEEWYARITKLRKMVDQLFCKKFAEALGSTEAKAVPYQKFEAHPNDLYVEGLPENIPFRSPSWYGIPRLEKIIQVGNRIKFVIKRPELLTHSTTEVTQPRTNTPVKEDWNVRITKLRKQVEEIFNLKFAQALGLTEAVKVPYPVFESNPEFLYVEGLPEGIPFRSPTWFGIPRLERIVRGSNKIKFVVKKPELVISYLPPGMASKINTKALQ
notes: source: bacteria, GST fusion, purified (glutathione-Sepharose 4B, PreScission, anion exchange, size exclusion)
stoichiometry N [2]: 2

Other lines, results leading:

binding result (His6-Rev7 R124A): binds
B3: Rev3L RBM (residues 1847–1898) (domain or fragment, human, UniProt O60673 1847-1898, looked up)
chain: MLTPTPDSSPRSTSSPSQSKNGSFTPRTANILKPLMSPPSREEIMATLLDHD
notes: The Rev3L chain of m12; also called Rev3L fragment; source: recombinant, purified together with His6-Rev7 R124A; prepared as previously described

stoichiometry N [1]: 1
B4: TFII-I fragment (residues 350–667) containing R2-R4 (domain or fragment, human, UniProt P78347 350-667, looked up)
chain: NFEKWNARITDLRKQVEELFERKYAQAIKAKGPVTIPYPLFQSHVEDLYVEGLPEGIPFRRPSTYGIPRLERILLAKERIRFVIKKHELLNSTREDLQLDKPASGVKEEWYARITKLRKMVDQLFCKKFAEALGSTEAKAVPYQKFEAHPNDLYVEGLPENIPFRSPSWYGIPRLEKIIQVGNRIKFVIKRPELLTHSTTEVTQPRTNTPVKEDWNVRITKLRKQVEEIFNLKFAQALGLTEAVKVPYPVFESNPEFLYVEGLPEGIPFRSPTWFGIPRLERIVRGSNKIKFVVKKPELVISYLPPGMASKINTKALQ
notes: as for B2
